Experimental data reported in patent US20030166056A1, “Transmembrane protein as a downstream target of neurotrophin and ephrin receptor tyrosine kinases, DNA encoding same and monoclonal antibodies thereto” (New York University, priority 2000, published 2003).
Entries after “also recorded” stand apart in the source; their conditions may differ.

B1: NGF: neurotrophin, ligand of TrkA; obtained from Harlan (protein, UniProt P01139 122-241, looked up)
Beta-nerve growth factor: SSTHPVFHMGEFSVCDSVSVWVGDKTTATDIKGKEVTVLAEVNINNSVFRQYFFETKCRASNPVESGCRGIDSKHWNSYCTTTHTFVKALTTDEKQAAWRFIRIDTACVCVLSRKATRRG

How the values were obtained:
Format in all cases: cell-based
[1] = system: tyrosine phosphorylation of ARMS by TrkA in PC12 615 cells; experiment: Tyrosine phosphorylation of ARMS in PC12 615 cells (IP with 892 antiserum, pY99 immunoblot); conditions: for Block of NGF-induced tyrosine phosphorylation of ARMS: 100 nM pretreatment; for Induction of tyrosine phosphorylation of ARMS: 100 ng/ml NGF, 50 ng/ml EGF, 10 minutes and 2 hours
Experimental: Human embryonic kidney (HEK) 293 and 293T cells were maintained in Dulbecco's Modified Eagle's Medium (DMEM) containing 10% fetal bovine serum (FBS) supplemented with 100 U/ml penicillin, 100 μg/ml streptomycin, and 2 mM glutamine. Native PC12 cells, TrkA-overexpressing PC12 cells (615) (Hempstead et al., 1992), and TrkB-overexpressing PC12 cells were maintained in DMEM containing 10% FBS and 5% heat-inactivated horse serum with 30 U/ml penicillin, 30 μg/ml streptomycin, 2 mM glutamine, and 200 μg/ml G418.
For transient transfection experiments, HEK293 or HEK293T cells plated at 70-80% confluency in 10 cm dishes were subjected to calcium phosphate transfection with different combinations of the mammalian expression plasmids containing cDNAs for ARMS, rat TrkA, and rat HA-tagged p75 (Khursigara et al., 1999). PC12 615 cells or transiently transfected cells were harvested and lysed in 1 ml TNE buffer (10 mM Tris (pH 8.0), 150 mM NaCl, 1 mM EDTA, and 1% NP40) containing 0.12 mg/ml phenylmethylsulfonyl fluoride (PMSF), 2 μg/ml leupeptin, 1 μg/ml aprotinin, 10 mM sodium fluoride (NaF), and 1 mM sodium orthovanadate (Na3VO4) for 30 min on ice. Following centrifugation and removal of the insoluble fraction, protein concentration of the supernatant was determined by the Bio-Rad Protein Assay reagent (Bio-Rad Laboratories, Hercules, Calif.) with bovine serum albumin as the standard. Cell lysates of equivalent protein content were incubated for 4 hours to overnight with rotation at 4° C. with either anti-pan-Trk polyclonal antibody, C14 (1.5 μg) or anti-ARMS (892) antiserum (1:100). The immune complexes were immobilized on protein A-Sepharose beads (Sigma), washed six times with ice-cold TNE buffer, boiled in SDS-sample buffer, separated by sodium dodecyl sulfate-polyacrylamide gel electrophoresis (SDS-PAGE), and transferred onto PVDF membrane (Millipore, Bedford, Mass.). Immunoblotting was carried out by first blocking membranes in TBST buffer (20 mM Tris (pH 7.5), 500 mM NaCl, 0.1% Tween-20) containing 5% BSA for pY99 and 5% nonfat milk for others, and then incubating for 2 hours at room temperature or overnight at 4° C. in TBST buffer containing one of the following primary antibodies: anti-Trk 44 serum (1:2000); anti-phosphotyrosine pY99 antibody (0.1 μg/ml) (Santa Cruz Biotechnology, Santa Cruz, Calif.); anti-ARMS (892) antiserum (1:1000). Membranes were washed with TBST buffer and then incubated with horseradish peroxidase (HRP)-conjugated goat anti-rabbit (Roche Molecular Biochemicals, Indianapolis, Ind.) or goat anti-mouse secondary antibodies (Jackson ImmunoResearch Laboratories, West Grove, Pa.) at 1:10,000 and 1:7500 dilutions, respectively. Immunoreactive protein bands were detected by enhanced chemiluminescence using ECL reagents (Amersham Pharmacia Biotech, Piscataway, N.J.).
The high degree of correspondence in the expression of ARMS and neurotrophin receptors and the endogenous association with TrkA receptors led the present inventors to postulate that ARMS might function as a target for Trk receptor phosphorylation. To investigate this possibility, cell lysates from NGF-treated PC12 cells were prepared and the ARMS protein was immunoprecipitated with anti-ARMS antiserum, 892. Phosphorylation of ARMS protein was visualized by immunoblotting with an anti-phosphotyrosine antibody, pY99. Tyrosine phosphorylation of ARMS was detectable within a minute of NGF addition (FIG. 10A, top), closely following the time course of TrkA autophosphorylation (FIG. 10A, bottom). With continued NGF treatment, the phosphorylation of ARMS persisted for 25 hours (FIG. 10B).

[2] = target: T1, association between ARMS and the TrkA receptor (Homo sapiens, UniProt P04629); experiment: Coprecipitation of TrkA and ARMS in PC12 615 cells; conditions: NGF 100 ng/ml, IP anti-Trk C-14, blot anti-ARMS
T1 construct: expressed in transfected cells; host or cells: PC12 615 cells (TrkA-overexpressing PC12); ARMS is endogenous to these cells
T1 sequence (P04629 33-796): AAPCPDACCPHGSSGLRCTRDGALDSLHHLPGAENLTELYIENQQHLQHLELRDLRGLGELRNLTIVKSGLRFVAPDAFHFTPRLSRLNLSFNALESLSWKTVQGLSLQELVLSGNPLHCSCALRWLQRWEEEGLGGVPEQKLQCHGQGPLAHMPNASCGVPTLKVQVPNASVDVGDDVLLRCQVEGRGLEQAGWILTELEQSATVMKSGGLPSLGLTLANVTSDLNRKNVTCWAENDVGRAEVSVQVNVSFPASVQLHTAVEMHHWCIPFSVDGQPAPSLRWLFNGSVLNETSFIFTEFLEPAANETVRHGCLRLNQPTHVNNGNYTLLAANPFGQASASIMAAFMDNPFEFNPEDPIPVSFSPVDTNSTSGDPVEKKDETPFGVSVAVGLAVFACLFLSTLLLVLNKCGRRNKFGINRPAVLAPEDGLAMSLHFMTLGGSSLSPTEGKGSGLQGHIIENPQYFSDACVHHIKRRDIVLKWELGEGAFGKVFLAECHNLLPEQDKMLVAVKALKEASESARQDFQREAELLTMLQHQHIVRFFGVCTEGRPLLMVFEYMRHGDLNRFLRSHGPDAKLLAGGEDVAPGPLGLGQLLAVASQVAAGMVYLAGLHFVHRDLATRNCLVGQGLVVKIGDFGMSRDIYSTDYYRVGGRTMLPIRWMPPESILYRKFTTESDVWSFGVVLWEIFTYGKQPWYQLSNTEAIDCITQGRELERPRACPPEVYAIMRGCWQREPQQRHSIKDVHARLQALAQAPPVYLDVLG
T1 sequence (Q9EQG6 whole entry partner): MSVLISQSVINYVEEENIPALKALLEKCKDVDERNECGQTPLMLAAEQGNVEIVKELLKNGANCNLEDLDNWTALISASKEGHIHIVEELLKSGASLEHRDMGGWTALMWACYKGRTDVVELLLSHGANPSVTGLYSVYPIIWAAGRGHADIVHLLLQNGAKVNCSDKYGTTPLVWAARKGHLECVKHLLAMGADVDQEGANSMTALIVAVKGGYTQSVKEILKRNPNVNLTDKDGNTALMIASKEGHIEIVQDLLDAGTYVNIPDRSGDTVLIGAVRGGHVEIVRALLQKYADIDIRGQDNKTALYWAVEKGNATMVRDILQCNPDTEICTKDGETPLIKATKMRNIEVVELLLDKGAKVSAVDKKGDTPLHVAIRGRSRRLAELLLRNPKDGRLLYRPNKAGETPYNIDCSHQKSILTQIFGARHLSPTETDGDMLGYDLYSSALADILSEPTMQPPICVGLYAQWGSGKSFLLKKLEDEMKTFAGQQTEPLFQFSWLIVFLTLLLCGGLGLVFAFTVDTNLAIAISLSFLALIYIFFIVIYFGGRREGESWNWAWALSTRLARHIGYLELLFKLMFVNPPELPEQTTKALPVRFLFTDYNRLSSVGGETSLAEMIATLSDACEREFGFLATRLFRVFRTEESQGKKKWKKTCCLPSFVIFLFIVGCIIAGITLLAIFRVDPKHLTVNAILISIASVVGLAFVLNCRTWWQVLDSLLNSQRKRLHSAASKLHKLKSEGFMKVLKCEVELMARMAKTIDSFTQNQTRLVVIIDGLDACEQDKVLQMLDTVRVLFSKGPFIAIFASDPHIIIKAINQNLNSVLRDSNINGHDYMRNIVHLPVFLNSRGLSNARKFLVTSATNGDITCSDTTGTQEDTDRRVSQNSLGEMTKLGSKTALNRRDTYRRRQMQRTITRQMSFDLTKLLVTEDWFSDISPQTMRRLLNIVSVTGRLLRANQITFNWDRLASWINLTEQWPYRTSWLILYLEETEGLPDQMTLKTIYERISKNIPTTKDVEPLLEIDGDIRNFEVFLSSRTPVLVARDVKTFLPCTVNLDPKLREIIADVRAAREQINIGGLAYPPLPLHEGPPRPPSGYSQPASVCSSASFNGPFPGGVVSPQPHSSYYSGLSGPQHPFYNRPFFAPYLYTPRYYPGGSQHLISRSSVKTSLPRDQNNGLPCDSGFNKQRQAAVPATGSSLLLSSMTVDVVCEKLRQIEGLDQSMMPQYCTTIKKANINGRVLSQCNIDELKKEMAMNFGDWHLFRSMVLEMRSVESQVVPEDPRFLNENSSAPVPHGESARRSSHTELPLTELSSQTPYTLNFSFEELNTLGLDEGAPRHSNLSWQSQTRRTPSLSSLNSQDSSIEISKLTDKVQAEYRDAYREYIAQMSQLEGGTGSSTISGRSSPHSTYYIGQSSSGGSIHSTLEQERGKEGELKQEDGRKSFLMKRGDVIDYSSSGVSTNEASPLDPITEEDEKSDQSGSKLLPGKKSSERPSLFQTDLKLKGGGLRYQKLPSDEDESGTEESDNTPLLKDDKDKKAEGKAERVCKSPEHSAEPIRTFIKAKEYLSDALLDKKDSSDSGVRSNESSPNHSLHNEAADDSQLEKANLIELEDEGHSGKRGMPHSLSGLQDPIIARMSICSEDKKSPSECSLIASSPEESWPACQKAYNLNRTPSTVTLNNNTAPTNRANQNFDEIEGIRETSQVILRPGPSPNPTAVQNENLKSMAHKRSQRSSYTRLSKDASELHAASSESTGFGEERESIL
Experimental: (§1) FIGS. 9A-9D show coprecipitation of TrkA and ARMS (FIG. 9A) and colocalization of TrkA and ARMS (FIGS. 9B-9D). In FIG. 9A, PC12 615 cells were treated for 10 minutes and 25 hours with NGF (100 ng/ml). Lysates were prepared and subjected to immunoprecipitation with anti-Trk C-14 antibody, followed by immunoblot with anti-ARMS antibody. Normal rabbit IgG was used as a negative control. In FIGS. 9B-9D, immunofluorescence analysis of ARMS and TrkA receptor in sympathetic neurons is shown. SCG sympathetic neurons were grown in the presence of 150 ng/ml NGF, fixed and immunostained as described in the Methods section of Example 1. The ARMS protein and the TrkA receptor were subjected to double immunostaining using an anti-ARMS antiserum (FIG. 9B) and an anti-Trk B-3 (FIG. 9C) monoclonal antibody and analyzed by confocal microscopy. […]
(§2) For transient transfection experiments, HEK293 or HEK293T cells plated at 70-80% confluency in 10 cm dishes were subjected to calcium phosphate transfection with different combinations of the mammalian expression plasmids containing cDNAs for ARMS, rat TrkA, and rat HA-tagged p75 (Khursigara et al., 1999). […] Following centrifugation and removal of the insoluble fraction, protein concentration of the supernatant was determined by the Bio-Rad Protein Assay reagent (Bio-Rad Laboratories, Hercules, Calif.) with bovine serum albumin as the standard. […]

[3] = target: T2, association between ARMS and the TrkA receptor; experiment: Coprecipitation of TrkA and ARMS in PC12 615 cells; conditions: NGF 100 ng/ml
T2 construct: expressed in transfected cells; host or cells: PC12 615 cells (TrkA-overexpressing PC12); ARMS is endogenous to these cells
T2 sequence (P04629 33-796): as the sequence (P04629 33-796) above
T2 sequence (Q9EQG6 whole entry partner): as the sequence (Q9EQG6 whole entry partner) above
Experimental: as §1, §2

[4] = system: distribution of ARMS in hippocampal neurons and PC12 cells; experiment: Immunofluorescence analysis of ARMS distribution; conditions: confocal immunofluorescence with antibody 892
Experimental: FIGS. 16A and 16B show a PC12 Immunofluorescence analysis. PC12 cells with (FIG. 16A) or without (FIG. 16B) NGF treatment cultured in Lab-Tek chamber slides (Nalge Nunc International) coated with collagen and poly-L-lysine were fixed with paraformaldehyde and permeablized with cold methanol. Cells were blocked with PBS containing 10% FCS and incubated with purified antibody (3 μg/ml) against the C-terminus of ARMS protein, 892 (Example 1). Primary antibodies were visualized using fluorescence-conjugated secondary antibodies (FITC-conjugated goat anti-rabbit IgG; Jackson Laboratories).
FIGS. 17A-17F show immunolocalization of ARMS and VAMP-2, a synaptic vesicle marker, in hippocampal neurons. Primary cultures of hippocampal neurons were obtained from rats E17-19 and maintained with Neurobasal medium (Gibco) supplemented with B-27 and 0.4 mM glutamine in Lab-Tek chamber slides (Nalge Nunc International) coated with poly-L-lysine. […] Primary antibodies were detected using fluorescence-conjugated secondary antibodies (FITC-conjugated goat anti-rabbit IgG and rhodamine-conjugated goat anti-mouse IgG (Jackson Laboratories)). […]

| Molecule | Block of NGF-induced tyrosine phosphorylation of ARMS ([1]; PC12 615 cells, NGF treatment) | Block of NGF-induced tyrosine phosphorylation of ARMS ([1]; PC12 615 cells, NGF treatment, listed as K-252a) | Induction of tyrosine phosphorylation of ARMS ([1]; PC12 615 cells) | Time to detectable ARMS phosphorylation ([1]; PC12 615 cells, NGF treatment) | Time of peak ARMS phosphorylation ([1]; PC12 cells, NGF treatment) | Persistence of ARMS-TrkA association after treatment [2] | Association between ARMS and TrkA receptor [3] | Change in distribution of ARMS [4] |
| --- | --- | --- | --- | --- | --- | --- | --- | --- |
| COC(=O)[C@@]1(O)C[C@H]2O[C@]1(C)n1c3ccccc3c3c4c(c5c6ccccc6n2c5c31)C(=O)NC4 [K252a, reference compound] | potently blocked | completely abolished |  |  |  |  |  |  |
| insulin |  |  | not elicited |  |  |  |  |  |
| B1 |  |  | considerably more robust; also recorded: specifically induced | ≤ 1 min | ≤ 10 min | 25 h | NGF-dependent association | dramatic change in distribution; also recorded: localized at neurite tips |
